Substrate: NC(=O)c1ccc[n+]([C@@H]2O[C@H](COP(=O)([O-])OP(=O)(O)OC[C@H]3O[C@@H](n4cnc5c(N)ncnc54)[C@H](O)[C@@H]3O)[C@@H](O)[C@H]2O)c1
Experiment: Enzyme kinetics of PARP15-catalyzed automodification by MLISA
Assay type: biochemical, human
Conditions: other: 500 nM PARP15, NAD+ 5-400 μM, Michaelis-Menten fit; pH 7.4

B1: PARP15 (Homo sapiens) (protein)
chain: NLPEHWTDMNHQLFCMVQLEPGQSEYNTIKDKFTRTCSSYAIEKIERIQNAFLWQSYQVKKRQMDIKNDHKNNERLLFHGTDADSVPYVNQHGFNRSCAGKNAVSYGKGTYFAVDASYSAKDTYSKPDSNGRKHMYVVRVLTGVFTKGRAGLVTPPPKNPHNPTDLFDSVTNNTRSPKLFVVFFDNQAYPEYLITFTA
- Km: 4.5 ± 2.9 µM

Source: PMC5826802
